In IntAct's records for PubMed 29892012:

B1: Glucosamine-6-phosphate deaminase 2 (Homo sapiens), Q8TDQ7 (parent)
chain: MRLVILDNYDLASEWAAKYICNRIIQFKPGQDRYFTLGLPTGSTPLGCYKKLIEYHKNGHLSFKYVKTFNMDEYVGLPRNHPESYHSYMWNNFFKHIDIDPNNAHILDGNAADLQAECDAFENKIKEAGGIDLFVGGIGPDGHIAFNEPGSSLVSRTRLKTLAMDTILANAKYFDGDLSKVPTMALTVGVGTVMDAREVMILITGAHKAFALYKAIEEGVNHMWTVSAFQQHPRTIFVCDEDATLELRVKTVKYFKGLMHVHNKLVDPLFSMKDGN
partner: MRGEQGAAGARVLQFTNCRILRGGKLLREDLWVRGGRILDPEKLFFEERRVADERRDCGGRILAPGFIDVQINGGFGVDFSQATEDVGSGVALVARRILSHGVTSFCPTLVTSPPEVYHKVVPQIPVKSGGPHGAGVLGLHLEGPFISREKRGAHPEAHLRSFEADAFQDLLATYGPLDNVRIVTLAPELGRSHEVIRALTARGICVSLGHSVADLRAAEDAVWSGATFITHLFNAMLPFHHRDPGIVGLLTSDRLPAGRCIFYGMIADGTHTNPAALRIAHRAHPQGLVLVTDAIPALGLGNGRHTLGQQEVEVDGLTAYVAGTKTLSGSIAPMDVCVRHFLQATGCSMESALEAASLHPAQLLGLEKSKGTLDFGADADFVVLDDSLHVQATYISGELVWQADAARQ
B2: E3 ubiquitin-protein ligase LNX (Homo sapiens), Q8TBB1 (parent)
chain: MNQPESANDPEPLCAVCGQAHSLEENHFYSYPEEVDDDLICHICLQALLDPLDTPCGHTYCTLCLTNFLVEKDFCPMDRKPLVLQHCKKSSILVNKLLNKLLVTCPFREHCTQVLQRCDLEHHFQTSCKGASHYGLTKDRKRRSQDGCPDGCASLTATAPSPEVSAAATISLMTDEPGLDNPAYVSSAEDGQPAISPVDSGRSNRTRARPFERSTIRSRSFKKINRALSVLRRTKSGSAVANHADQGRENSENTTAPEVFPRLYHLIPDGEITSIKINRVDPSESLSIRLVGGSETPLVHIIIQHIYRDGVIARDGRLLPGDIILKVNGMDISNVPHNYAVRLLRQPCQVLWLTVMREQKFRSRNNGQAPDAYRPRDDSFHVILNKSSPEEQLGIKLVRKVDEPGVFIFNVLDGGVAYRHGQLEENDRVLAINGHDLRYGSPESAAHLIQASERRVHLVVSRQVRQRSPDIFQEAGWNSNGSWSPGPGERSNTPKPLHPTITCHEKVVNIQKDPGESLGMTVAGGASHREWDLPIYVISVEPGGVISRDGRIKTGDILLNVDGVELTEVSRSEAVALLKRTSSSIVLKALEVKEYEPQEDCSSPAALDSNHNMAPPSDWSPSWVMWLELPRCLYNCKDIVLRRNTAGSLGFCIVGGYEEYNGNKPFFIKSIVEGTPAYNDGRIRCGDILLAVNGRSTSGMIHACLARLLKELKGRITLTIVSWPGTFL
partner: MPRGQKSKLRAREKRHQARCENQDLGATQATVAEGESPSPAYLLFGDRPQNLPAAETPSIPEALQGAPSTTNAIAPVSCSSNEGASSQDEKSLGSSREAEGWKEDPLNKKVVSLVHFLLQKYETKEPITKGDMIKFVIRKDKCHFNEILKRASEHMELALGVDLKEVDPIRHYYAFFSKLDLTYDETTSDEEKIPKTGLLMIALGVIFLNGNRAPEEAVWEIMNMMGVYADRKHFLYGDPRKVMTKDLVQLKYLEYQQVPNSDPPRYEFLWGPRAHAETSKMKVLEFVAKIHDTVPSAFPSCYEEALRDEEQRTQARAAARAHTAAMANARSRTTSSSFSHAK
B3: E3 ubiquitin-protein ligase LNX (Homo sapiens), Q8TBB1 (parent)
chain: B2 chain
partner: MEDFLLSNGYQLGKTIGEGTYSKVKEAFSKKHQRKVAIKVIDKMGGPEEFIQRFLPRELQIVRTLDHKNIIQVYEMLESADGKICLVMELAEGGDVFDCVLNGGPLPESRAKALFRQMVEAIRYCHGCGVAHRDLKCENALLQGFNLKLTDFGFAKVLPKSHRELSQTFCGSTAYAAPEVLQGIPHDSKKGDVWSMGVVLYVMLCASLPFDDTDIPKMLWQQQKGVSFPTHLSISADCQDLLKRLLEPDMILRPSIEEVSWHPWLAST
B4: Histone-lysine N-methyltransferase SMYD1 (Homo sapiens), Q8NB12 (parent)
chain: MTIGRMENVEVFTAEGKGRGLKATKEFWAADIIFAERAYSAVVFDSLVNFVCHTCFKRQEKLHRCGQCKFAHYCDRTCQKDAWLNHKNECSAIKRYGKVPNENIRLAARIMWRVEREGTGLTEGCLVSVDDLQNHVEHFGEEEQKDLRVDVDTFLQYWPPQSQQFSMQYISHIFGVINCNGFTLSDQRGLQAVGVGIFPNLGLVNHDCWPNCTVIFNNGNHEAVKSMFHTQMRIELRALGKISEGEELTVSYIDFLNVSEERKRQLKKQYYFDCTCEHCQKKLKDDLFLGVKDNPKPSQEVVKEMIQFSKDTLEKIDKARSEGLYHEVVKLCRECLEKQEPVFADTNIYMLRMLSIVSEVLSYLQAFEEASFYARRMVDGYMKLYHPNNAQLGMAVMRAGLTNWHAGNIEVGHGMICKAYAILLVTHGPSHPITKDLEAMRVQTEMELRMFRQNEFMYYKMREAALNNQPMQVMAEPSNEPSPALFHKKQ
partner: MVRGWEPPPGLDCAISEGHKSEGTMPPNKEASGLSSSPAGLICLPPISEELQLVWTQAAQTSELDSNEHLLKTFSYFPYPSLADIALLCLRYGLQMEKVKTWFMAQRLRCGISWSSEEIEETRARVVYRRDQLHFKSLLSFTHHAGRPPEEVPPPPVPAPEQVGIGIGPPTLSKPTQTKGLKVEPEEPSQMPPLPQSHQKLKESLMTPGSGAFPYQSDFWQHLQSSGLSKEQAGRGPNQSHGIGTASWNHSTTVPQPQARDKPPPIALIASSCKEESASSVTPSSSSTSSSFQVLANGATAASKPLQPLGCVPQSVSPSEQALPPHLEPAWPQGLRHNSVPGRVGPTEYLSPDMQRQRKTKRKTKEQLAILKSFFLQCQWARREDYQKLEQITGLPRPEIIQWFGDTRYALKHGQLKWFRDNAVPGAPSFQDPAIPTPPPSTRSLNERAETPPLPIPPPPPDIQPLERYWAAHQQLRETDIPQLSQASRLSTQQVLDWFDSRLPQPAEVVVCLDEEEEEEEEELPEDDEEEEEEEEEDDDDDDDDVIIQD
B5: Rho guanine nucleotide exchange factor 3 (Homo sapiens), Q9NR81 (parent)
chain: MVAKDYPFYLTVKRANCSLELPPASGPAKDAEEPSNKRVKPLSRVTSLANLIPPVKATPLKRFSQTLQRSISFRSESRPDILAPRPWSRNAAPSSTKRRDSKLWSETFDVCVNQMLTSKEIKRQEAIFELSQGEEDLIEDLKLAKKAYHDPMLKLSIMTEQELNQIFGTLDSLIPLHEELLSQLRDVRKPDGSTEHVGPILVGWLPCLSSYDSYCSNQVAAKALLDHKKQDHRVQDFLQRCLESPFSRKLDLWNFLDIPRSRLVKYPLLLREILRHTPNDNPDQQHLEEAINIIQGIVAEINTKTGESECRYYKERLLYLEEGQKDSLIDSSRVLCCHGELKNNRGVKLHVFLFQEVLVITRAVTHNEQLCYQLYRQPIPVKDLLLEDLQDGEVRLGGSLRGAFSNNERIKNFFRVSFKNGSQSQTHSLQANDTFNKQQWLNCIRQAKETVLCAAGQAGVLDSEGSFLNPTTGSRELQGETKLEQMDQSDSESDCSMDTSEVSLDCERMEQTDSSCGNSRHGESNV
partner: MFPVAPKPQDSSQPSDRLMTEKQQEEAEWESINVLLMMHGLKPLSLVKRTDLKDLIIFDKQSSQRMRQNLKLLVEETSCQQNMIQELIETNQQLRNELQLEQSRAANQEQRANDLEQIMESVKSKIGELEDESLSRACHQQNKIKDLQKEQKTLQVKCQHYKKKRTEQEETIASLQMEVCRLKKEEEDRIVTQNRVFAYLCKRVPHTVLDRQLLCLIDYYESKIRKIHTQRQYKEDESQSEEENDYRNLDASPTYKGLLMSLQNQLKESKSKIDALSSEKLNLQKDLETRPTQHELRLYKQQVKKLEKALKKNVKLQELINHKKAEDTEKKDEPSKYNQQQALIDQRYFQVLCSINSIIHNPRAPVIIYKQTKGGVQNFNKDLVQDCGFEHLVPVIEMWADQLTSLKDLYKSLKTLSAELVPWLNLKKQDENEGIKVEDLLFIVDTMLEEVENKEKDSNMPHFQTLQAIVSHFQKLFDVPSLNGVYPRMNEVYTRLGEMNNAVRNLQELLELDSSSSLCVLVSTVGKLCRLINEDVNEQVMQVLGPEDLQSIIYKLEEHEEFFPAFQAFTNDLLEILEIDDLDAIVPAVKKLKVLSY

Variants of: B1
Conditions: with naga_human AMDHD2, Q9Y303

effect of a mutation on the interaction | Variant
with no effect | I216V

Variants of: B2
Conditions: with magbi_human MAGEB18, Q96M61

effect of a mutation on the interaction | Variant
disrupting interaction strength | E295K

Variants of: B3
Conditions: with tssk3_human TSSK3, Q96PN8

effect of a mutation on the interaction | Variant
disrupting interaction strength | E295K

Variants of: B4
Conditions: with homez_human HOMEZ

effect of a mutation on the interaction | Variant
with no effect | Q443R

Variants of: B5
Conditions: with cep70_human CEP70, Q8NHQ1

effect of a mutation on the interaction | Variant
with no effect | P34S
